Consider four molecules from publication PMC3127751, “Adhesive polypeptides of Staphylococcus aureus identified using a novel secretion library technique in Escherichia coli” (BMC Microbiology, 2011).

B1: fibrinogen (complex)
chain 1: ADSGEGDFLAEGGGVRGPRVVERHQSACKDSDWPFCSDEDWNYKCPSGCRMKGLIDEVNQDFTNRINKLKNSLFEYQKNNKDSHSLTTNIMEILRGDFSSANNRDNTYNRVSEDLRSRIEVLKRKVIEKVQHIQLLQKNVRAQLVDMKRLEVDIDIKIRSCRGSCSRALAREVDLKDYEDQQKQLEQVIAKDLLPSRDRQHLPLIKMKPVPDLVPGNFKSQLQKVPPEWKALTDMPQMRMELERPGGNEITRGGSTSYGTGSETESPRNPSSAGSWNSGSSGPGSTGNRNPGSSGTGGTATWKPGSSGPGSTGSWNSGSSGTGSTGNQNPGSPRPGSTGTWNPGSSERGSAGHWTSESSVSGSTGQWHSESGSFRPDSPGSGNARPNNPDWGTFEEVSGNVSPGTRREYHTEKLVTSKGDKELRTGKEKVTSGSTTTTRRSCSKTVTKTVIGPDGHKEVTKEVVTSEDGSDCPEAMDLGTLSGIGTLDGFRHRHPDEAAFFDTASTGKTFPGFFSPMLGEFVSETESRGSESGIFTNTKESSSHHPGIAEFPSRGKSSSYSKQFTSSTSYNRGDSTFESKSYKMADEAGSEADHEGTHSTKRGHAKSRPV
chain 2: QGVNDNEEGFFSARGHRPLDKKREEAPSLRPAPPPISGGGYRARPAKAAATQKKVERKAPDAGGCLHADPDLGVLCPTGCQLQEALLQQERPIRNSVDELNNNVEAVSQTSSSSFQYMYLLKDLWQKRQKQVKDNENVVNEYSSELEKHQLYIDETVNSNIPTNLRVLRSILENLRSKIQKLESDVSAQMEYCRTPCTVSCNIPVVSGKECEEIIRKGGETSEMYLIQPDSSVKPYRVYCDMNTENGGWTVIQNRQDGSVDFGRKWDPYKQGFGNVATNTDGKNYCGLPGEYWLGNDKISQLTRMGPTELLIEMEDWKGDKVKAHYGGFTVQNEANKYQISVNKYRGTAGNALMDGASQLMGENRTMTIHNGMFFSTYDRDNDGWLTSDPRKQCSKEDGGGWWYNRCHAANPNGRYYWGGQYTWDMAKHGTDDGVVWMNWKGSWYSMRKMSMKIRPFFPQQ
chain 3: YVATRDNCCILDERFGSYCPTTCGIADFLSTYQTKVDKDLQSLEDILHQVENKTSEVKQLIKAIQLTYNPDESSKPNMIDAATLKSRKMLEEIMKYEASILTHDSSIRYLQEIYNSNNQKIVNLKEKVAQLEAQCQEPCKDTVQIHDITGKDCQDIANKGAKQSGLYFIKPLKANQQFLVYCEIDGSGNGWTVFQKRLDGSVDFKKNWIQYKEGFGHLSPTGTTEFWLGNEKIHLISTQSAIPYALRVELEDWNGRTSTADYAMFKVGPEADKYRLTYAYFAGGDAGDAFDGFDFGDDPSDKFFTSHNGMQFSTWDNDNDKFEGNCAEQDGSGWWMNKCHAGHLNGVYYQGGTYSKASTPNGYDNGIIWATWKTRWYSMKKTTMKIIPFNRLTIGEGQQHHLGGAKQAGDV
modifications: plasma fibrinogen (AαBβγ)2, disulfide-linked and glycosylated, fibrinopeptides retained; the main circulating forms are assumed (Aα 610 residues, γA 411 residues). The γA chain is taken from PDB …
B2: His-ΔUsp (domain or fragment)
chain: MITYKNILIAVDGSHEAEWAFNRAVGVAKRNDAKLTIVNVIDSRTYSSYEVYDAQFTEKSKHFAEELLNGYKEVATNAGVKDVETRLEFGSPKSIIPKKLAHEINADLIMSGTSGLNAVERFIVGSVSESIVRHAPCDVLVVRTEELPADFQPQVATTQLREKYQN
notes: the Usp-like gene fragment of library clone ΔUsp (as the staphylococcal part of m7), recloned by PCR into pQE30; also called ΔUsp purified 6xHis polypeptide; source: E. coli cytoplasm (pQE30), purified under native conditions (QIAexpress System), dialysed against PBS; not shown: His6, N-terminal, kept
B3: His-ΔFnBPA (domain or fragment)
chain: ASEQKTTTVEENGNSATDNKTSETQTTATNVNHIEETQSYNATVTEQPSNATQVTTEEAPKAVQAPQTAQPANIETVKEEVVKEEAKPQVKETTQSQDNSGDQRQVDLTPKKATQNQVAETQVEVAQPRTASESKPRVTRSADVAEAKEASNAKVETGTDVTSKVTVEIGSIEGHNNTNKVEPHAGQRAVLKYKLKFENGLHQGDYFDFTLSNNVNTHGVSTARKVPEIKNGSVVMATGEVLEGGKIRYTFTNDIEDKVDVTAELEINLFIDPKTVQTNGNQTITSTLNEEQTSKELDVKYKDGIGNYYANLNGSIETFNKANNRFSHVAFIKPNNGKTTSVTVTGTLMKGSNQNGNQPKVRIFEYLGNNEDIAKSVYANTTDTSKFKEVTSNMSGNLNLQNNGSYSLNIENLDKTYVVHYDGEYLNGTDEVDFRTQMVGHPEQLYKYYYDRGYTLTWDNGLVLYSNKANGNEKNGPIIQNNKFEYKEDTIKETLTGQYDKNLVTTVEEEYDSSTLDIDYHTAIDGGGGYVDGYIETIEETDSSAIDIDYHTAVDSEAGHVGGYTESSEESNPIDFEESTHENSKHHADVVEYEEDTNPGGGQVTTESNLVEFDEESTKGIVTGAVSDHTTVEDTKEYTTESNLIELVDELPEEHGQAQGPVEEITKNNHHISHSGLGTENGHGNYDVIEEIEENSHVDIKSELGYEGGQNSGNQSFEEDTEEDKPKYEQGGNIVDIDFDSVPQIHGQNKGNQSFEEDTEKDKPKYEHGGNIIDIDFDSVPHIHGFNKHTEIIEEDTNKDKPSYQFGGHNSVDFEEDTLPKVSGQNEGQQTIEEDTTPPIVPPTPPTPEVPSEPETPTPPTPEVPSEPETPTPPTPEVPSEPETPTPPTPEVPAEPGKPVPPAKEEPKKPSKPVEQGKVVTPVIEINEKVKAVAPTKKPQSKKSELPET
notes: the FnBPA gene fragment of library clone ΔFnBPA (as the staphylococcal part of m2); also called ΔFnBPA purified 6xHis polypeptide; source: E. coli cytoplasm (pQE30), purified under native conditions (QIAexpress System), dialysed against PBS; not shown: His6, N-terminal, kept
B4: His-ΔPurK (domain or fragment)
chain: MNFNKLKFGATIGIIGGGQLGKMMAQSAQKMGYKVVVLDPSEDCPCRYVAHEFIQAKYDDEKALNQLGQKCDVITYEFENISAQQLKLLCEKYNIPQGYQAIQLLQDRLTEKETLKSAGTKVVPFISVKESTDIDKAIETLGYPFIVKTRFGGYDGKGQVLINNEKDLQEGFKLIETSECVAEKYLNIKKEVSLTVTRGNNNQITFFPLQENEHRNQILFKTIVPARIDKTAEAKEQVNKIIQSIHFIGTFTVEFFIDSNNQLYVNEIAPRPHNSGHYSIEACDYSQFDTHILAVTGQSLPNSIELLKPAVMMNLLGKDLDLLENEFNEHPEWHLHIYGKSERKDSRKMGHMTVLTNDVNQTEQDMYAKFEGSN
notes: the PurK gene fragment of library clone ΔPurK (as the staphylococcal part of m5), recloned by PCR into pQE30; also called ΔPurK purified 6xHis polypeptide; source: E. coli cytoplasm (pQE30), purified under native conditions (QIAexpress System), dialysed against PBS; not shown: His6, N-terminal, kept

Experiment in all cases: SPR; Biacore T100, CM5 chip, Fn and Fg amine-coupled; His-polypeptides as analytes at 0.5, 1.0, 1.5, 2.0 and 2.5 μM in PBS, 30 μl/min, single cycle kinetics; steady state affinity constants
Common to all, as to conditions: both partners purified

The target in one assay is His-ΔCoa (S. aureus subsp. aureus NCTC 8325-4, UniProt Q2G1D3 1-636).
The next assay concerns the target T1, His-ΔEbh (S. aureus subsp. aureus NCTC 8325-4, UniProt Q2FYJ6 40-9535).
T1 construct: the Ebh gene fragment of library clone ΔEbh (as the staphylococcal part of m3), recloned by PCR into pQE30; also called ΔEbh purified 6xHis polypeptide; source: E. coli cytoplasm (pQE30), purified under native conditions (QIAexpress System), dialysed against PBS; not shown: His6, N-terminal, kept

The assay “fibrinogen” concerns the target B1.
The target in a further assay is human plasma fibronectin (human).
Sequence of human plasma fibronectin (human) (P02751 other isoform, or with tags, fused parts or gaps, chain 1 of 2): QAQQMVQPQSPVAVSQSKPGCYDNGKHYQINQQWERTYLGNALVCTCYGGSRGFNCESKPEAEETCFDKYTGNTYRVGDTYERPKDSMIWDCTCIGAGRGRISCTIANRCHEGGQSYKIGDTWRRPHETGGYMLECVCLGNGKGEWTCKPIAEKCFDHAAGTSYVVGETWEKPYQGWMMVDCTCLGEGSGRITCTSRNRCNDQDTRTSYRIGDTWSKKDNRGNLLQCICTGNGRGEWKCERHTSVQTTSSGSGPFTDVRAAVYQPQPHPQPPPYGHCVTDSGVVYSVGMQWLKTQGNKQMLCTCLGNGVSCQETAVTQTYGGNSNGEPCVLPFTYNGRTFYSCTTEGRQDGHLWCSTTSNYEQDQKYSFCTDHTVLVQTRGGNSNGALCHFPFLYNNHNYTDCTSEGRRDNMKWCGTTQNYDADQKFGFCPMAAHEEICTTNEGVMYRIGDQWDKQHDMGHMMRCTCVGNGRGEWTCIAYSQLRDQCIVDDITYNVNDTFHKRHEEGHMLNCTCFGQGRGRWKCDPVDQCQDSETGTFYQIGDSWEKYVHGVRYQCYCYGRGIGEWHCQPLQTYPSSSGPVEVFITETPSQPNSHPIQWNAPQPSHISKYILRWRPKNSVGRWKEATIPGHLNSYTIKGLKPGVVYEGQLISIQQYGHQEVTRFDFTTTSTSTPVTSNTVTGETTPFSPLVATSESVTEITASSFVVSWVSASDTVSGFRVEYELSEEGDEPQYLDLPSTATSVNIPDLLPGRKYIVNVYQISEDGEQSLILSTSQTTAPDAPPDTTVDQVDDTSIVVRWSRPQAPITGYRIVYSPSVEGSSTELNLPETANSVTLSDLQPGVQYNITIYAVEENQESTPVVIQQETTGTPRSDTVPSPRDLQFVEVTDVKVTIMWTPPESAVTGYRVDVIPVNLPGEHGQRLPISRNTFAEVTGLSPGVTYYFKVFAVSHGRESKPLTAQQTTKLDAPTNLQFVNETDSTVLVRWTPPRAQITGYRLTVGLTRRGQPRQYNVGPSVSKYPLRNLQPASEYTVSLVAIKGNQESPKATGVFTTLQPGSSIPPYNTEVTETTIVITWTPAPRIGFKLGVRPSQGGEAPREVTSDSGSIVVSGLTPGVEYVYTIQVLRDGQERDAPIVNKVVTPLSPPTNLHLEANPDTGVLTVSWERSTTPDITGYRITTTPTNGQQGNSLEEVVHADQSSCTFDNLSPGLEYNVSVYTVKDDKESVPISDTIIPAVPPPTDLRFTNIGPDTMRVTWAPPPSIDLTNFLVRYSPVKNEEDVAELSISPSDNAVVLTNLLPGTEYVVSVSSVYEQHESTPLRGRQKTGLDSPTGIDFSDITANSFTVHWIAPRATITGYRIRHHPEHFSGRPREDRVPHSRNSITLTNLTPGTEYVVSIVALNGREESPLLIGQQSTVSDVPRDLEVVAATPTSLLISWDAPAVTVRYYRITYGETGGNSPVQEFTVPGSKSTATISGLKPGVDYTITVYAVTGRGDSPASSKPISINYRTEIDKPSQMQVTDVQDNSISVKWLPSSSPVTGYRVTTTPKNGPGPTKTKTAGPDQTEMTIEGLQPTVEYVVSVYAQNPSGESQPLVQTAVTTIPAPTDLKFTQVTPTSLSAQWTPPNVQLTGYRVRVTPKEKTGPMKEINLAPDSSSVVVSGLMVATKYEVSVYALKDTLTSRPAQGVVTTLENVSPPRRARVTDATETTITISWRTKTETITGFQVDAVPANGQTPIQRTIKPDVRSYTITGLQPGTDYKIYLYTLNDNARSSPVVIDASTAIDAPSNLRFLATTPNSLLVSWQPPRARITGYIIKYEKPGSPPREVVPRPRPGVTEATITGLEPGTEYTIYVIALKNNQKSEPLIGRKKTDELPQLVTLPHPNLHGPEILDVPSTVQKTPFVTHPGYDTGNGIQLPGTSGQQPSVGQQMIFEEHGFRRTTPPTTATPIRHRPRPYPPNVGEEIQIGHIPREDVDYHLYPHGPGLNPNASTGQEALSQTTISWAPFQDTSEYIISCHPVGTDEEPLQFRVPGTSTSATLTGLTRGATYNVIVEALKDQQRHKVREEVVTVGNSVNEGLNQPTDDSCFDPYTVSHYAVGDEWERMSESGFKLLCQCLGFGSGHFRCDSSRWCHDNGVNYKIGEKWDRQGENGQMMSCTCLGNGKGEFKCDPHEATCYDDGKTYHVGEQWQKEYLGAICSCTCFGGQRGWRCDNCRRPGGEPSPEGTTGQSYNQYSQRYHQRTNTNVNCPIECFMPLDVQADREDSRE
Sequence of human plasma fibronectin (human) (P02751 other isoform, or with tags, fused parts or gaps, chain 2 of 2): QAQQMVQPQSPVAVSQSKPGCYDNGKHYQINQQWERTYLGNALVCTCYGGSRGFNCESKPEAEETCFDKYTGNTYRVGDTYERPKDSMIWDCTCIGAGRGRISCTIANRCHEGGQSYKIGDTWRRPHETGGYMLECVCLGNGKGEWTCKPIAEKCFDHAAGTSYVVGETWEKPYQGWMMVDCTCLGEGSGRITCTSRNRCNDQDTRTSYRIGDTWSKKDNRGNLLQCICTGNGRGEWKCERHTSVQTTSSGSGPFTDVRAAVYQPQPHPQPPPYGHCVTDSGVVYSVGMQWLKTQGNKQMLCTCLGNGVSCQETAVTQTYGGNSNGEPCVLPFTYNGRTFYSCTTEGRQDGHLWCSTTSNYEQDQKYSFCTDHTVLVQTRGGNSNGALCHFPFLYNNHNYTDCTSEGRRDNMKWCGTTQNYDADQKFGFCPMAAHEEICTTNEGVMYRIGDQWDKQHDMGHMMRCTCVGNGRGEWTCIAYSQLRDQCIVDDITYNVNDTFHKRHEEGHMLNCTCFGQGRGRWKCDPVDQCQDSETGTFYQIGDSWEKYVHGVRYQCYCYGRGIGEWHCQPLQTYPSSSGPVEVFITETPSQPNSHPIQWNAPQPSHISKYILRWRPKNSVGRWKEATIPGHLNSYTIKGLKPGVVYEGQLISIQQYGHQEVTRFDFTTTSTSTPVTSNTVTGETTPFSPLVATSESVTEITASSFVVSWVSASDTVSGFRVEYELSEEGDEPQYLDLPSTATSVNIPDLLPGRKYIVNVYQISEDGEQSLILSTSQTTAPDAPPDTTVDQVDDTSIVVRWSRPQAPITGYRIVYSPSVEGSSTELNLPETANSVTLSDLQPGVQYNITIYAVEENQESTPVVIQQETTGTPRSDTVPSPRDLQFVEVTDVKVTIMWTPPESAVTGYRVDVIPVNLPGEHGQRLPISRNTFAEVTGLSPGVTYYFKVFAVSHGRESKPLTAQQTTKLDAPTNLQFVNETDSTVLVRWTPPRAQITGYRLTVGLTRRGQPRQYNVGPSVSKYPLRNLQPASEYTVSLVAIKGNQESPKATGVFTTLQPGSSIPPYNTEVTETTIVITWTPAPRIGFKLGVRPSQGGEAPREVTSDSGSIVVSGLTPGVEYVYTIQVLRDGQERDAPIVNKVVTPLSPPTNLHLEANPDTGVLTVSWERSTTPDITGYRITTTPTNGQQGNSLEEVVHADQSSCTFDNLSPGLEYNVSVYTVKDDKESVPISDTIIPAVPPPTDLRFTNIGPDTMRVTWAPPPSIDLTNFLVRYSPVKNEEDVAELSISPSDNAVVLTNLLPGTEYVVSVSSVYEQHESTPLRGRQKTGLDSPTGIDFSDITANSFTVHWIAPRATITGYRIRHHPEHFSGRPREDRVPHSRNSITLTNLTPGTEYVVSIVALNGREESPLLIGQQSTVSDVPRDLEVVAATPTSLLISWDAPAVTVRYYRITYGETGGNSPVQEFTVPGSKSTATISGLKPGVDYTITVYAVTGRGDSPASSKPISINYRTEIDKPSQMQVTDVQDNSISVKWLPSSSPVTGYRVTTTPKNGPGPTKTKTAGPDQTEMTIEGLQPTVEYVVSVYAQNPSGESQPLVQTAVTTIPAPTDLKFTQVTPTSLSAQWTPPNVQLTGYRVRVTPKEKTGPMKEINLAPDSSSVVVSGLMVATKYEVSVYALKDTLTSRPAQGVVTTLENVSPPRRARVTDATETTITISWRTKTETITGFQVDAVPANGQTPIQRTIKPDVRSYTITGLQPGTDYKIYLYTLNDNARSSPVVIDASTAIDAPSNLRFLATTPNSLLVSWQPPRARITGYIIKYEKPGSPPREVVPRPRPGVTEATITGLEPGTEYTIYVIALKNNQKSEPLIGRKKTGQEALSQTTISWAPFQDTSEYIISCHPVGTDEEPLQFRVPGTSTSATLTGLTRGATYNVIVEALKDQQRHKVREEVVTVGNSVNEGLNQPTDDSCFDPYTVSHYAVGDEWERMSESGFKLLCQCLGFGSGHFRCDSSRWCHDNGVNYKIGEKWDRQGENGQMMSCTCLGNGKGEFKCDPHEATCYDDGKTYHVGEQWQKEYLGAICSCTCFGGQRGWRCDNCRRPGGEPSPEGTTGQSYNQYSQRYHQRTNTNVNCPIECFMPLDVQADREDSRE

Turning to B1, the Kd with His-ΔCoa was found to be 0.18 µM; in the assay with His-ΔEbh it was 1.25 µM.
Regarding B2, in the assay with fibrinogen, the Kd came out at 6.45 µM.
For the molecule B3, the Kd with human plasma fibronectin worked out at 5.24 µM.
Consider B4, for which the Kd with human plasma fibronectin came to 0.443 µM; with fibrinogen, 5.39 µM.
